In article PMC10624832:

Key:
[1] = target: Hsp70 (UniProt P11142)
[2] = target: Hsp70 T204A,S494C-AF488 (C267A, C574A, C603A); test: fluorescence polarisation; steady-state fluorescence anisotropy; 100 nM Hsp70 T204A,S494C-AF488 titrated with 0-1.0 mM full-length DNAJB6 WT or mutants; 20 min at 37 °C; 50 mM HEPES pH 8.0, 200 mM KCl, 10 mM MgCl, 2 mM ATP; one-site binding model
[3] = target: Hsp70 (UniProt P11142); remark: listed apart in the source
[4] = target: Hsp70 (UniProt P11142); remark: listed apart in the source
[5] = target: Hsp70 (UniProt P11142); remark: listed apart in the source

Sequence of DNAJB6^JD (res. 1-72) (O75190 1-72): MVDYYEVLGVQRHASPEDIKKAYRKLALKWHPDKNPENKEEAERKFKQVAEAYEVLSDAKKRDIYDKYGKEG
Sequence of DNAJB6^JD-GF WT (res. 1-109) (O75190 1-109): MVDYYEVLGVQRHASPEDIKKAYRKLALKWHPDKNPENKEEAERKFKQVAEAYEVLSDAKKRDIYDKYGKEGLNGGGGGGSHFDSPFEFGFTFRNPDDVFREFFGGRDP
Sequence of DNAJB6^WT (isoform b), full-length oligomeric, O75190-2 1-241 (natural protein) (O75190 other isoform, or with tags, fused parts or gaps): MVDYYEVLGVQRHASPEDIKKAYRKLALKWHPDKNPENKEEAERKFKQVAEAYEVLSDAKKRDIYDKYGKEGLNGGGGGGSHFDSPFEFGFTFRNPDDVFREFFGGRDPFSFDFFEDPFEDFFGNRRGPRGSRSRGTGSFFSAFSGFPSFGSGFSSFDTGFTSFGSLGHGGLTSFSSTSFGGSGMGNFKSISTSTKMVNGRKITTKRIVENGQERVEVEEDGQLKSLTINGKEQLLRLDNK

## DNAJB6^JD-GF P96R (from UniProt O75190 1-109) (domain or fragment)
[1]
  steady-state ATPase activity of Hsp70, fold enhancement of ATP hydrolysis rate: 4 fold

## full-length DNAJB6 F93L (from UniProt O75190-2 1-241) (natural protein)
[2]
  Kd: 290 µM

## DNAJB6^JD-GF WT (res. 1-109) (from UniProt O75190 1-109) (domain or fragment)
[3]
  steady-state ATPase activity of Hsp70, fold activation over Hsp70 alone: 1.6 fold

## full-length DNAJB6 P96R (from UniProt O75190-2 1-241) (natural protein)
[2]
  Kd: 47 µM

## full-length DNAJB6 F100V (from UniProt O75190-2 1-241) (natural protein)
[2]
  Kd: 1.5 µM

## full-length DNAJB6 F91I (from UniProt O75190-2 1-241) (natural protein)
[2]
  Kd: 600 µM

## DNAJB6^JD (res. 1-72) (from UniProt O75190 1-72) (domain or fragment)
[4]
  steady-state ATPase activity of Hsp70 (initial rate of phosphate release, PBP fluorescence); 0.25 μM Hsp70, 0.25 μM DNAJB6 variant: 1.74 nM Pi min^−1

## DNAJB6^JD-GF A50V (from UniProt O75190 1-109) (domain or fragment)
[1]
  steady-state ATPase activity of Hsp70 (initial rate of phosphate release); roughly 6-8-fold increase: 1.24 nM Pi min^−1

## DNAJB6^JD-GF E54A (from UniProt O75190 1-109) (domain or fragment)
[1]
  steady-state ATPase activity of Hsp70, fold enhancement of ATP hydrolysis rate: 4 fold

## full-length DNAJB6 A50V (from UniProt O75190-2 1-241) (natural protein)
[2]
  Kd: 9 µM

## DNAJB6^WT (isoform b), full-length oligomeric (from UniProt O75190-2 1-241) (natural protein)
[2]
  Kd: > 10000 µM

## DNAJB6^WT (isoform b), full-length oligomeric, O75190-2 1-241 (natural protein)
[5]
  steady-state ATPase activity of Hsp70 with full-length oligomeric DNAJB6, fold activation: 1.4 fold

## DNAJB6^JD-GF F100V (from UniProt O75190 1-109) (domain or fragment)
[1]
  steady-state ATPase activity of Hsp70 (initial rate of phosphate release); roughly 6-8-fold increase: 1.64 nM Pi min^−1
